Measurements published in the Immune Epitope Database (IEDB).
Values belong to the sequence of their own block, whether it stands above or below them.

Columns and labels:
[1] = molecular target: HLA-A*02:01; test: IEDB peptide-MHC binding, purified MHC/competitive/fluorescence; filed as Kd, often an IC50 or EC50 that approximates it; ≥ and ≤ were set here for values at or beyond the usual limits of such assays
[2] = molecular target: HLA-A*02:03; test: as above
[3] = molecular target: HLA-A*02:11; test: as above
[4] = molecular target: HLA-A*02:12; test: as above
[5] = molecular target: HLA-A*02:16; test: as above
[6] = molecular target: HLA-A*02:19; test: as above
[7] = molecular target: HLA-A*03:01; test: as above
[8] = molecular target: HLA-A*24:03; test: as above
[9] = molecular target: HLA-A*26:01; test: as above
[10] = molecular target: HLA-B*15:01; test: as above
[11] = molecular target: HLA-B*18:01; test: as above
[12] = molecular target: HLA-B*27:03; test: as above
[13] = molecular target: HLA-B*39:01; test: as above
[14] = molecular target: HLA-B*46:01; test: as above
[15] = molecular target: HLA-B*51:01; test: as above
[16] = molecular target: HLA-B*57:01; test: as above
[17] = molecular target: HLA-A*02:06; test: as above
[18] = molecular target: HLA-A*69:01; test: as above; conditions: source organism: Human immunodeficiency virus type 1 (ELI ISOLATE)
[19] = molecular target: HLA-B*15:02; test: as above
[20] = molecular target: HLA-B*73:01; test: as above; conditions: source organism: Clostridium novyi NT
[21] = molecular target: HLA-A*11:01; test: IEDB peptide-MHC binding, purified MHC/direct/fluorescence; filed as Kd, often an IC50 or EC50 that approximates it; ≥ and ≤ were set here for values at or beyond the usual limits of such assays
[22] = molecular target: HLA-A*31:01; test: IEDB peptide-MHC binding, purified MHC/competitive/fluorescence; filed as Kd, often an IC50 or EC50 that approximates it; ≥ and ≤ were set here for values at or beyond the usual limits of such assays
[23] = molecular target: HLA-B*07:02; test: as above; conditions: source organism: Mycobacterium tuberculosis variant bovis BCG str. Pasteur 1173P2
[24] = molecular target: HLA-A*29:02; test: as above; conditions: source organism: Salmonella enterica subsp. enterica serovar Paratyphi A str. AKU_12601
[25] = molecular target: HLA-B*15:17; test: as above; conditions: source organism: Salmonella enterica subsp. enterica serovar Paratyphi A str. AKU_12601
[26] = molecular target: HLA-A*02:01; test: IEDB peptide-MHC binding, purified MHC/direct/fluorescence; filed as Kd, often an IC50 or EC50 that approximates it; ≥ and ≤ were set here for values at or beyond the usual limits of such assays; conditions: source organism: Escherichia coli O157:H7 str. EC869
[27] = molecular target: HLA-A*02:03; test: as above; conditions: source organism: Escherichia coli O157:H7 str. EC869
[28] = molecular target: HLA-A*02:11; test: as above; conditions: source organism: Escherichia coli O157:H7 str. EC869
[29] = molecular target: HLA-A*02:12; test: as above; conditions: source organism: Escherichia coli O157:H7 str. EC869
[30] = molecular target: HLA-A*02:16; test: as above; conditions: source organism: Escherichia coli O157:H7 str. EC869
[31] = molecular target: HLA-A*02:19; test: as above; conditions: source organism: Escherichia coli O157:H7 str. EC869
[32] = molecular target: HLA-A*03:01; test: as above; conditions: source organism: Escherichia coli O157:H7 str. EC869
[33] = molecular target: HLA-A*26:01; test: as above; conditions: source organism: Escherichia coli O157:H7 str. EC869
[34] = molecular target: HLA-A*68:02; test: as above; conditions: source organism: Escherichia coli O157:H7 str. EC869
[35] = molecular target: HLA-A*69:01; test: as above; conditions: source organism: Escherichia coli O157:H7 str. EC869
[36] = molecular target: HLA-B*07:02; test: as above; conditions: source organism: Escherichia coli O157:H7 str. EC869
[37] = molecular target: HLA-B*15:01; test: as above; conditions: source organism: Escherichia coli O157:H7 str. EC869
[38] = molecular target: HLA-B*27:03; test: as above; conditions: source organism: Escherichia coli O157:H7 str. EC869
[39] = molecular target: HLA-B*35:01; test: as above; conditions: source organism: Escherichia coli O157:H7 str. EC869
[40] = molecular target: HLA-B*39:01; test: as above; conditions: source organism: Escherichia coli O157:H7 str. EC869
[41] = molecular target: HLA-B*46:01; test: as above; conditions: source organism: Escherichia coli O157:H7 str. EC869
[42] = molecular target: HLA-B*51:01; test: as above; conditions: source organism: Escherichia coli O157:H7 str. EC869
[43] = molecular target: HLA-B*57:01; test: as above; conditions: source organism: Escherichia coli O157:H7 str. EC869
[44] = source organism: Vibrio cholerae 2740-80
[45] = source organism: Human immunodeficiency virus type 1 (ELI ISOLATE)
[46] = source organism: Escherichia coli ATCC 8739
[47] = source organism: Mycobacterium tuberculosis variant bovis BCG str. Pasteur 1173P2
[48] = source organism: Giardia lamblia ATCC 50803
[49] = source organism: Salmonella enterica subsp. enterica serovar Paratyphi A str. AKU_12601

Sequence: IFIRTIYYH
Kd [1, 44]: ≥ 20 µM
Kd [2, 44]: ≥ 20 µM
Kd [3, 44]: ≥ 20 µM
Kd [4, 44]: ≥ 20 µM
Kd [5, 44]: ≥ 20 µM
Kd [6, 44]: ≥ 20 µM
Kd [7, 44]: ≥ 20 µM
Kd [8, 44]: ≥ 20 µM
Kd [9, 44]: ≥ 20 µM
Kd [10, 44]: ≥ 20 µM
Kd [11, 44]: ≥ 20 µM
Kd [12, 44]: ≥ 20 µM
Kd [13, 44]: ≥ 20 µM
Kd [14, 44]: ≥ 20 µM
Kd [15, 44]: ≥ 20 µM
Kd [16, 44]: ≥ 20 µM

Sequence: SLGQHIYET
Kd [1, 45]: 0.012 µM
Kd [2, 45]: 0.0065 µM
Kd [17, 45]: 0.011 µM
Kd [4, 45]: 0.0225 µM
Kd [5, 45]: 0.006 µM
Kd [6, 45]: 0.084 µM
Kd [18]: ≥ 20 µM

Sequence: FILSGRFSY
Kd ([19]; source organism: Shigella flexneri): 0.396 µM

Sequence: SRDYYRHKV
Kd [20]: 3.62 µM

Sequence: LTYRHKVVK
Kd ([21]; source organism: West Nile virus): 0.0298 µM
Kd ([22]; source organism: Japanese encephalitis virus): 0.0239 µM

Sequence: QLLDFLLAY
Kd ([19]; source organism: Shigella dysenteriae Sd197): 0.0558 µM

Sequence: SYYCAGLKK
Kd ([21]; source organism: Dengue virus 1 Singapore/S275/1990): 0.0801 µM
Kd ([22]; source organism: dengue virus type 1): 1.96 µM

Kd [1, 46]: 0.119 µM
Kd [17, 46]: 1.55 µM
Sequence: GLLDWGMQQ

Sequence: SLYEKSGSV
Kd [2, 47]: ≤ 0.001 µM
Kd [3, 47]: 0.0011 µM
Kd [4, 47]: 0.0341 µM
Kd [6, 47]: 0.13 µM
Kd [23]: ≥ 20 µM

Sequence: MARPADASM
Kd [1, 48]: ≥ 20 µM
Kd [2, 48]: ≥ 20 µM
Kd [3, 48]: ≥ 20 µM
Kd [4, 48]: ≥ 20 µM
Kd [5, 48]: ≥ 20 µM
Kd [6, 48]: ≥ 20 µM
Kd [7, 48]: ≥ 20 µM
Kd [8, 48]: ≥ 20 µM
Kd [9, 48]: ≥ 20 µM
Kd [11, 48]: ≥ 20 µM
Kd [12, 48]: ≥ 20 µM
Kd [13, 48]: ≥ 20 µM
Kd [14, 48]: 2.2 µM
Kd [16, 48]: 0.121 µM

Sequence: HMLVVIRKY
Kd ([19]; source organism: Clostridium botulinum A str. ATCC 3502): 0.194 µM

Sequence: AMDTHLYFE
Kd [1, 49]: ≥ 20 µM
Kd [2, 49]: ≥ 20 µM
Kd [3, 49]: 0.0539 µM
Kd [4, 49]: 0.284 µM
Kd [6, 49]: ≥ 20 µM
Kd [7, 49]: ≥ 20 µM
Kd [8, 49]: ≥ 20 µM
Kd [9, 49]: ≥ 20 µM
Kd [24]: ≥ 20 µM
Kd [10, 49]: ≥ 20 µM
Kd [25]: ≥ 20 µM
Kd [11, 49]: ≥ 20 µM
Kd [12, 49]: ≥ 20 µM
Kd [13, 49]: ≥ 20 µM
Kd [14, 49]: ≥ 20 µM
Kd [15, 49]: ≥ 20 µM
Kd [16, 49]: ≥ 20 µM

Sequence: ILRDGQRWY
Kd ([19]; source organism: Yersinia pestis CO92): 0.0552 µM

Kd [26]: ≥ 20 µM
Kd [27]: ≥ 20 µM
Kd [28]: ≥ 20 µM
Kd [29]: ≥ 20 µM
Kd [30]: ≥ 20 µM
Kd [31]: ≥ 20 µM
Kd [32]: ≥ 20 µM
Kd [33]: ≥ 20 µM
Kd [34]: ≥ 20 µM
Kd [35]: ≥ 20 µM
Kd [36]: ≥ 20 µM
Kd [37]: 0.18 µM
Kd [38]: ≥ 20 µM
Kd [39]: 0.006 µM
Kd [40]: ≥ 20 µM
Kd [41]: ≥ 20 µM
Kd [42]: ≥ 20 µM
Kd [43]: ≥ 20 µM
Sequence: YGSWFGLIY

Sequence: GLYQGIVGF
Kd ([19]; source organism: Rickettsia prowazekii str. Madrid E): 0.0596 µM
